From patent publication US20140087995A1 (published 2014)
Numbered stars: 1 amine (or outer) side, 2 acyl side, 3 side chain; on linkers, the order of the positions; unused ones are H or OH. Bridge positions count the residues as written; N and C are the ends. Side chains are listed from the residue outwards. Ends that are not written are not given here. * marks the point of attachment. C20 diacid = O=C(O)CCCCCCCCCCCCCCCCCCC(=O)*; C18 diacid = O=C(O)CCCCCCCCCCCCCCCCC(=O)*; γGlu = O=C(O)[C@H](CCC(=O)[*:2])N[*:1]

T1: rat calcitonin receptor (rat, UniProt P32214 25-516)
T1 construct: whole, on cells; Used as membranes prepared from the transfected cells (Assay VIII); also called rCTR; rat calcitonin (a) receptor
T1 sequence (looked up): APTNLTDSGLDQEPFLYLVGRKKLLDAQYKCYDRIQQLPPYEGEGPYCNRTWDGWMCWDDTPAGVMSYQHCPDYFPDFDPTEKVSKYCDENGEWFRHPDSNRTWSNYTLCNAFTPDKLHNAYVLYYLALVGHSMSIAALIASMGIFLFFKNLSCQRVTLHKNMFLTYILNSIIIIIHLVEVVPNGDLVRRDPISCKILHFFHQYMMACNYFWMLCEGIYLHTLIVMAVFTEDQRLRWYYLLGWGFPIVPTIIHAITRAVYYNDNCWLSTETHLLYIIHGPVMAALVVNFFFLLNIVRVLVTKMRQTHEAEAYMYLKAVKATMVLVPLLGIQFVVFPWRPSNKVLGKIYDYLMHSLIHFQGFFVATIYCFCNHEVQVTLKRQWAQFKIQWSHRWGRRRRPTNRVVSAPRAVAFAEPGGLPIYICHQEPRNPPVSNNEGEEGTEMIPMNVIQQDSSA

T2: human calcitonin receptor (human, UniProt P30988 25-474)
T2 construct: whole, on cells; Used as membranes prepared from the transfected cells (Assay VII); also called hCTR; hCT
T2 sequence (looked up): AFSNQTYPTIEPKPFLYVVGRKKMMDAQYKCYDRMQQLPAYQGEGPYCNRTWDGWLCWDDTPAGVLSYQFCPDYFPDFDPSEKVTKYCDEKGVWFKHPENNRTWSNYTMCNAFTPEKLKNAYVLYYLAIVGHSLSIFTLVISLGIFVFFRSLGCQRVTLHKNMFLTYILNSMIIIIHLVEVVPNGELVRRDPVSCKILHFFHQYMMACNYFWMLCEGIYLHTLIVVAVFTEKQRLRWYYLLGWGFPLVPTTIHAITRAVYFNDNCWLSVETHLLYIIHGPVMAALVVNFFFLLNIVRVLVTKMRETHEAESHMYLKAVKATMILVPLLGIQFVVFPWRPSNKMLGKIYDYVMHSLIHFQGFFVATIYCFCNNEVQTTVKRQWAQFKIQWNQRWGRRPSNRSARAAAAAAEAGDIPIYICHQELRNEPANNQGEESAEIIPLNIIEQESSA

T3: rat amylin receptor (rat calcitonin receptor + rat RAMP 3) (rat, UniProt P32214 25-516; Q9JJ73 23-147)
T3 construct: whole, on cells; Used as membranes prepared from the transfected cells (Assay VI); also called rAmylin-R; rat amylin 3(a) receptor
T3 sequence (looked up) 1: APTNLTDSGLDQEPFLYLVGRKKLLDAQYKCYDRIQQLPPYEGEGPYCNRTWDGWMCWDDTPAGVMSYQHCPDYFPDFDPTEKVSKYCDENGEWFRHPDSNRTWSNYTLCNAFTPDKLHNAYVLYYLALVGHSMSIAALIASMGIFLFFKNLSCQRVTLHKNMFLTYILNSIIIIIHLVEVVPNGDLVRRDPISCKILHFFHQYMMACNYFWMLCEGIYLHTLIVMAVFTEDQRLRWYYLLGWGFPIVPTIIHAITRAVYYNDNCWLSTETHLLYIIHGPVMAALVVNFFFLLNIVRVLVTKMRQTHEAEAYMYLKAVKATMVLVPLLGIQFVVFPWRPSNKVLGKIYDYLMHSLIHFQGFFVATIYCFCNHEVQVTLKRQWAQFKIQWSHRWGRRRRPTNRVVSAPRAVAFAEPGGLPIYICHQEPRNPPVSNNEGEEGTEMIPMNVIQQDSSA
T3 sequence (looked up) 2: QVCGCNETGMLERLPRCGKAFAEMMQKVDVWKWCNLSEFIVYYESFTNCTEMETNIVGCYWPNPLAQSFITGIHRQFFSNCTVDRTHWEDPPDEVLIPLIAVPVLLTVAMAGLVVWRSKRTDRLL


How the values were obtained:
rat calcitonin receptor [1] = biological target: T1, rat calcitonin receptor; test: ratio of IC50 on rat calcitonin receptor (Assay VIII) to IC50 on rat amylin receptor (Assay VI)
[2] = biological target: T2, human calcitonin receptor; test: ratio of IC50 on human calcitonin receptor (Assay VII) to IC50 on human amylin receptor (Assay V)
Protocol: The resulting pellet was resuspended, homogenized and centrifuged (20.000 rpm, 15 min) in a buffer containing 20 mM Na-HEPES and 0.1 mM EDTA (pH 7.4, buffer 2). The resulting pellet was resuspended in buffer 2 and protein concentration was measured (BCA protein Assay, Pierce). The homogenate was kept cold during the whole procedure. The membranes were kept at −80° C. until use. The assay was performed in a 384 well Optiplate (PerkinElmer) in a total volume of 40 ul. Membranes were mixed with SPA beads. Final concentration of membranes 35 ng/μL final and SPA beads was 0.05 mg/well. Test-compounds were dissolved in DMSO and further diluted in assay buffer (50 mM Hepes, pH 7.4, 1 mM CaCl2, 5 mM MgCl₂, 0.1% OA and 0.02% Tween20). […] The final mixture was incubated with shaking at 400 rpm for 120 min at 25° C. prior to centrifugation (1500 rpm, 10 min). Samples were analyzed on TopCounter™ (Packard). The IC₅₀ was calculated using (one site binding competition analysis) GraphPad Prism5 as a measure of receptor affinity.
Membranes were prepared in the following way; the cells were rinsed with PBS and incubated with Versene for approximately 5 min before harvesting. The cells were flushed with PBS and the cell-suspension was centrifuged for 5 min at 1000 rpm. Cells were homogenized (Ultrathurrax) in a buffer containing 20 mM Na-HEPES and 10 mM EDTA (pH 7.4) and centrifuged at 20.000 rpm for 15 min. The resulting pellet was resuspended, homogenized and centrifuged (20.000 rpm, 15 min) in a buffer containing 20 mM Na-HEPES and 0.1 mM EDTA (pH 7.4, buffer 2). The resulting pellet was resuspended in buffer 2 and protein concentration was measured (BCA protein Assay, Pierce). The homogenate was kept cold during the whole procedure. The membranes were kept at −80° C. until use. Assay was performed in a 384 well Optiplate (PerkinElmer) in a total volume of 40 ul. Membranes were mixed with SPA beads.

rat calcitonin receptor [3] = biological target: T1, rat calcitonin receptor; test: SPA competition binding, displacement of 125I-calcitonin from membranes of BHK tk'ts 13 cells transfected with rat calcitonin receptor (Assay VIII)
[4] = biological target: T3, rat amylin receptor (rat calcitonin …); test: SPA competition binding, displacement of 125I-rat amylin from membranes of BHK tk'ts 13 cells transfected with rat calcitonin receptor + rat RAMP 3 (Assay VI)

Ratio rCT/rAmylin binding (rat calcitonin receptor [1]) | Ratio hCT/hAmylin binding [2] | IC50 (rat calcitonin receptor [3]) | IC50 [4] | Binder
40.3 | 59.4 | 47 nM | 1.17 nM | K([γGlu-C18 diacid])CNTATCATQRLANFLRHSSPNFGAIPSSTNVGHNTY-NH2 (disulfide 2-7; N-terminus assumed; SMILES CC[C@H](C)[C@H](NC(=O)[C@H](C)NC(=O)CNC(=O)[C@H](Cc1ccccc1)NC(=O)[C@H](CC(N)=O)NC(=O)[C@@H]1CCCN1C(=O)[C@H](CO)NC(=O)[C@H](CO)NC(=O)[C@H](Cc1c[nH]cn1)NC(=O)[C@H](CCCNC(=N)N)NC(=O)[C@H](CC(C)C)NC(=O)[C@H](Cc1ccccc1)NC(=O)[C@H](CC(N)=O)NC(=O)[C@H](C)NC(=O)[C@H](CC(C)C)NC(=O)[C@H](CCCNC(=N)N)NC(=O)[C@H](CCC(N)=O)NC(=O)[C@@H](NC(=O)[C@H](C)NC(=O)[C@@H]1CSSC[C@H](NC(=O)[C@@H](N)CCCCNC(=O)CC[C@H](NC(=O)CCCCCCCCCCCCCCCCC(=O)O)C(=O)O)C(=O)N[C@@H](CC(N)=O)C(=O)N[C@@H]([C@@H](C)O)C(=O)N[C@@H](C)C(=O)N[C@@H]([C@@H](C)O)C(=O)N1)[C@@H](C)O)C(=O)N1CCC[C@H]1C(=O)N[C@@H](CO)C(=O)N[C@@H](CO)C(=O)N[C@H](C(=O)N[C@@H](CC(N)=O)C(=O)N[C@H](C(=O)NCC(=O)N[C@@H](Cc1c[nH]cn1)C(=O)N[C@@H](CC(N)=O)C(=O)N[C@H](C(=O)N[C@@H](Cc1ccc(O)cc1)C(N)=O)[C@@H](C)O)C(C)C)[C@@H](C)O, not restated for each compound) [N^ε1-[(4S)-4-carboxy-4-(17-carboxyheptadecanoylamino)butanoyl]-[Arg17,Pro21,Pro27,His34]-h-amylin]
52.2 | 21.2 | 5.43 nM | 0.104 nM | K([γGlu-C20 diacid])CNTATCATQRLAEFLRHSSPNFGAIPSSTNVGPHTY-NH2 (disulfide 2-7, not restated for each compound)
116 | 151 | 58.5 nM | 0.504 nM | K([γGlu-C20 diacid])CNTATCATQRLADFLRHSSPNFGAIPSSTNVGPRTY-NH2 (disulfide 2-7; N-terminus assumed; SMILES CC[C@H](C)[C@H](NC(=O)[C@H](C)NC(=O)CNC(=O)[C@H](Cc1ccccc1)NC(=O)[C@H](CC(N)=O)NC(=O)[C@@H]1CCCN1C(=O)[C@H](CO)NC(=O)[C@H](CO)NC(=O)[C@H](Cc1c[nH]cn1)NC(=O)[C@H](CCCNC(=N)N)NC(=O)[C@H](CC(C)C)NC(=O)[C@H](Cc1ccccc1)NC(=O)[C@H](CC(=O)O)NC(=O)[C@H](C)NC(=O)[C@H](CC(C)C)NC(=O)[C@H](CCCNC(=N)N)NC(=O)[C@H](CCC(N)=O)NC(=O)[C@@H](NC(=O)[C@H](C)NC(=O)[C@@H]1CSSC[C@H](NC(=O)[C@@H](N)CCCCNC(=O)CC[C@H](NC(=O)CCCCCCCCCCCCCCCCCCC(=O)O)C(=O)O)C(=O)N[C@@H](CC(N)=O)C(=O)N[C@@H]([C@@H](C)O)C(=O)N[C@@H](C)C(=O)N[C@@H]([C@@H](C)O)C(=O)N1)[C@@H](C)O)C(=O)N1CCC[C@H]1C(=O)N[C@@H](CO)C(=O)N[C@@H](CO)C(=O)N[C@H](C(=O)N[C@@H](CC(N)=O)C(=O)N[C@H](C(=O)NCC(=O)N1CCC[C@H]1C(=O)N[C@@H](CCCNC(=N)N)C(=O)N[C@H](C(=O)N[C@@H](Cc1ccc(O)cc1)C(N)=O)[C@@H](C)O)C(C)C)[C@@H](C)O, not restated for each compound)
81.1 | 28.5 | 86.1 nM | 1.06 nM | K([γGlu-C20 diacid])CNTATCATQRLAEFLRHSSPNFGAIPSSTNVGRETY-NH2 (disulfide 2-7; N-terminus assumed; SMILES CC[C@H](C)[C@H](NC(=O)[C@H](C)NC(=O)CNC(=O)[C@H](Cc1ccccc1)NC(=O)[C@H](CC(N)=O)NC(=O)[C@@H]1CCCN1C(=O)[C@H](CO)NC(=O)[C@H](CO)NC(=O)[C@H](Cc1c[nH]cn1)NC(=O)[C@H](CCCNC(=N)N)NC(=O)[C@H](CC(C)C)NC(=O)[C@H](Cc1ccccc1)NC(=O)[C@H](CCC(=O)O)NC(=O)[C@H](C)NC(=O)[C@H](CC(C)C)NC(=O)[C@H](CCCNC(=N)N)NC(=O)[C@H](CCC(N)=O)NC(=O)[C@@H](NC(=O)[C@H](C)NC(=O)[C@@H]1CSSC[C@H](NC(=O)[C@@H](N)CCCCNC(=O)CC[C@H](NC(=O)CCCCCCCCCCCCCCCCCCC(=O)O)C(=O)O)C(=O)N[C@@H](CC(N)=O)C(=O)N[C@@H]([C@@H](C)O)C(=O)N[C@@H](C)C(=O)N[C@@H]([C@@H](C)O)C(=O)N1)[C@@H](C)O)C(=O)N1CCC[C@H]1C(=O)N[C@@H](CO)C(=O)N[C@@H](CO)C(=O)N[C@H](C(=O)N[C@@H](CC(N)=O)C(=O)N[C@H](C(=O)NCC(=O)N[C@@H](CCCNC(=N)N)C(=O)N[C@@H](CCC(=O)O)C(=O)N[C@H](C(=O)N[C@@H](Cc1ccc(O)cc1)C(N)=O)[C@@H](C)O)C(C)C)[C@@H](C)O, not restated for each compound)
22.7 | 26.4 | 26.3 nM | 1.16 nM | K([γGlu-C20 diacid])CNTATCATQRLAEFLRHSSPNFGAIPSSTNVGSHTY-NH2 (disulfide 2-7; N-terminus assumed; SMILES CC[C@H](C)[C@H](NC(=O)[C@H](C)NC(=O)CNC(=O)[C@H](Cc1ccccc1)NC(=O)[C@H](CC(N)=O)NC(=O)[C@@H]1CCCN1C(=O)[C@H](CO)NC(=O)[C@H](CO)NC(=O)[C@H](Cc1c[nH]cn1)NC(=O)[C@H](CCCNC(=N)N)NC(=O)[C@H](CC(C)C)NC(=O)[C@H](Cc1ccccc1)NC(=O)[C@H](CCC(=O)O)NC(=O)[C@H](C)NC(=O)[C@H](CC(C)C)NC(=O)[C@H](CCCNC(=N)N)NC(=O)[C@H](CCC(N)=O)NC(=O)[C@@H](NC(=O)[C@H](C)NC(=O)[C@@H]1CSSC[C@H](NC(=O)[C@@H](N)CCCCNC(=O)CC[C@H](NC(=O)CCCCCCCCCCCCCCCCCCC(=O)O)C(=O)O)C(=O)N[C@@H](CC(N)=O)C(=O)N[C@@H]([C@@H](C)O)C(=O)N[C@@H](C)C(=O)N[C@@H]([C@@H](C)O)C(=O)N1)[C@@H](C)O)C(=O)N1CCC[C@H]1C(=O)N[C@@H](CO)C(=O)N[C@@H](CO)C(=O)N[C@H](C(=O)N[C@@H](CC(N)=O)C(=O)N[C@H](C(=O)NCC(=O)N[C@@H](CO)C(=O)N[C@@H](Cc1c[nH]cn1)C(=O)N[C@H](C(=O)N[C@@H](Cc1ccc(O)cc1)C(N)=O)[C@@H](C)O)C(C)C)[C@@H](C)O, not restated for each compound)
